Laboratory results taken from patent US20220177587A1, “METHODS AND USES OF VARIANT CD80 FUSION PROTEINS AND RELATED CONSTRUCTS” (Alpine Immune Sciences, Inc., priority 2018, published 2022).
Like-named read-outs stand apart in the source and are kept apart here. Each block holds one substance with its values, some of them ahead of it.

Tests used:
PD-L1 (human) [1] = target: PD-L1 (human) (UniProt Q9NZQ7)
Target sequence in this assay (Q9NZQ7 19-290): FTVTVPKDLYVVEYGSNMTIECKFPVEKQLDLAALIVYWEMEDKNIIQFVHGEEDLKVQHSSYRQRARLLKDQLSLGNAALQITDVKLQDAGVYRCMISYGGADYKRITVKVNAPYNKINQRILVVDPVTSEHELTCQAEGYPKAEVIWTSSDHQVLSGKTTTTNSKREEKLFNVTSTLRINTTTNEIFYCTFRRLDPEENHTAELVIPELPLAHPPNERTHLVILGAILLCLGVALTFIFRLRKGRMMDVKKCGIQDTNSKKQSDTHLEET

CD28 (human) [2] = target: CD28 (human) (UniProt P10747)
PD-L1 (human) [3] = target: PD-L1 (human) (UniProt Q9NZQ7); assay: flow cytometry, transfected Expi293F cells
Target sequence in this assay (Q9NZQ7 19-290): as above

human CTLA-4 (human) [4] = target: human CTLA-4 (human) (UniProt P16410); assay: flow cytometry, transfected Expi293F cells
Target sequence in this assay (P16410 36-223): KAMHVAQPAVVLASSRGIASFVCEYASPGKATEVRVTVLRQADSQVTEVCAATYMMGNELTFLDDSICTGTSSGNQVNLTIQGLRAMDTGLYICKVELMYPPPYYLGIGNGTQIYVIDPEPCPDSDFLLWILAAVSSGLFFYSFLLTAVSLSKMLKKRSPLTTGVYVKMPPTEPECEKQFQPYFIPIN

CD28 (human) [5] = target: CD28 (human) (UniProt P10747); assay: flow cytometry, HEK293 cells transfected with human CD28; negative control
PD-L1 (human) [6] = target: PD-L1 (human) (UniProt Q9NZQ7); assay: flow cytometry, HEK293 cells transfected with human PD-L1; negative control
Target sequence in this assay (Q9NZQ7 19-290): as the sequence (Q9NZQ7 19-290) above

human CTLA-4 (human) [7] = target: human CTLA-4 (human) (UniProt P16410); assay: flow cytometry, HEK293 cells transfected with human CTLA-4; negative control
Target sequence in this assay (P16410 36-223): as the sequence (P16410 36-223) above

CD28 (human) [8] = target: CD28 (human) (UniProt P10747); remark: listed apart in the source
CD28 (human) [9] = target: CD28 (human) (UniProt P10747); assay: flow cytometry, Jurkat cells (CD28)
PD-L1 (human) [10] = target: PD-L1 (human) (UniProt Q9NZQ7); assay: flow cytometry, CHO cells stably expressing PD-L1
human CTLA-4 (human) [11] = target: human CTLA-4 (human) (UniProt P16410); assay: flow cytometry, CHO cells stably expressing CTLA4
PD-L1 (human) [12] = target: PD-L1 (human) (UniProt Q9NZQ7); assay: flow cytometry, CHO cells stably expressing PD-L1; remark: listed apart in the source
CD28 (human) [13] = target: CD28 (human) (UniProt P10747); assay: flow cytometry, Jurkat cells (CD28); remark: listed apart in the source
CD28 (human) [14] = target: CD28 (human) (UniProt P10747); assay: flow cytometry, HEK293 cells transfected with human CD28
PD-L1 (human) [15] = target: PD-L1 (human) (UniProt Q9NZQ7); assay: flow cytometry, CHO cells expressing PD-L1
human CTLA-4 (human) [16] = target: human CTLA-4 (human) (UniProt P16410); assay: flow cytometry, HEK293 cells transfected with full-length human CTLA-4, PE anti-human Fc
Target sequence in this assay (P16410 36-223): as above

PD-L1 (human) [17] = target: PD-L1 (human) (UniProt Q9NZQ7); assay: flow cytometry, HEK293 cells transfected with full-length human PD-L1, PE anti-human Fc
Target sequence in this assay (Q9NZQ7 19-290): as the sequence (Q9NZQ7 19-290) above

CD28 (human) [18] = target: CD28 (human) (UniProt P10747); assay: flow cytometry, HEK293 cells transfected with full-length human CD28, PE anti-human Fc
PD-L1 (human) [19] = target: PD-L1 (human) (UniProt Q9NZQ7); remark: listed apart in the source
Target sequence in this assay (Q9NZQ7 19-290): as above

CD28 (human) [20] = target: CD28 (human) (UniProt P10747); remark: listed apart in the source
PD-L1 (human) [21] = target: PD-L1 (human) (UniProt Q9NZQ7); remark: listed apart in the source
Target sequence in this assay (Q9NZQ7 19-290): as above

CD28 (human) [22] = target: CD28 (human) (UniProt P10747); remark: listed apart in the source
PD-L1 (human) [23] = target: PD-L1 (human) (UniProt Q9NZQ7); remark: listed apart in the source
CD28 (human) [24] = target: CD28 (human) (UniProt P10747); remark: listed apart in the source
PD-L1 (human) [25] = target: PD-L1 (human) (UniProt Q9NZQ7); remark: listed apart in the source
CD28 (human) [26] = target: CD28 (human) (UniProt P10747); remark: listed apart in the source
PD-L1 (human) [27] = target: PD-L1 (human) (UniProt Q9NZQ7); assay: flow cytometry, CHO/PD-L1 cells; MFI over CD80 WT IgV-Fc
PD-L1 (human) [28] = target: PD-L1 (human) (UniProt Q9NZQ7); remark: listed apart in the source
CD28 (human) [29] = target: CD28 (human) (UniProt P10747); remark: listed apart in the source
CD28 (human) [30] = target: CD28 (human) (UniProt P10747); assay: flow cytometry, Jurkat cells (CD28); MFI over CD80 WT IgV-Fc
human CTLA-4 (human) [31] = target: human CTLA-4 (human) (UniProt P16410); assay: flow cytometry, CHO/CTLA4 cells; MFI over CD80 WT IgV-Fc
Target sequence in this assay (P16410 36-223): as the sequence (P16410 36-223) above

CD28 (human) [32] = target: CD28 (human) (UniProt P10747); assay: flow cytometry, Jurkat/IL2 reporter cells (CD28), vs WT CD80 ECD-Fc (R&D)
human CTLA-4 (human) [33] = target: human CTLA-4 (human) (UniProt P16410); assay: flow cytometry, CHO cells expressing huCTLA4
Target sequence in this assay (P16410 36-223): as above

PD-L1 (human) [34] = target: PD-L1 (human) (UniProt Q9NZQ7); assay: flow cytometry, CHO cells expressing huPD-L1
human CTLA-4 (human) [35] = target: human CTLA-4 (human) (UniProt P16410); assay: flow cytometry, CHO cells expressing huCTLA4, vs WT CD80 ECD-Fc (R&D)
Target sequence in this assay (P16410 36-223): as above

CD28 (human) [36] = target: CD28 (human) (UniProt P10747); assay: flow cytometry, Jurkat/IL2 reporter cells (CD28)
[37] = target: CD28, endogenously expressed on Jurkat/IL2 reporter cells (human) (UniProt P10747); assay: flow cytometry on Jurkat/IL2 reporter cells (endogenous CD28), 33.3 nM Fc fusion, PE anti-human Fc
[38] = target: human PD-L1 (huPD-L1), on stably transduced CHO cells (human) (UniProt Q9NZQ7); assay: flow cytometry on CHO cells stably expressing huPD-L1, 33.3 nM Fc fusion, PE anti-human Fc
Chain of human PD-L1 (huPD-L1), on stably transduced CHO cells (human) (Q9NZQ7 19-290): as the sequence (Q9NZQ7 19-290) above

[39] = target: CD28, endogenously expressed on Jurkat/IL2 reporter cells (human) (UniProt P10747); assay: flow cytometry on Jurkat (CD28) cells; MFI relative to WT CD80 (CD80 WT IgV-Fc = 1.0)
[40] = target: human CTLA-4 (huCTLA4), on stably transduced CHO cells (human) (UniProt P16410); assay: flow cytometry on CHO/huCTLA4 cells; MFI relative to WT CD80 (CD80 WT IgV-Fc = 1.0)
Chain of human CTLA-4 (huCTLA4), on stably transduced CHO cells (human) (P16410 36-223): as the sequence (P16410 36-223) above

[41] = target: human PD-L1 (huPD-L1), on stably transduced CHO cells (human) (UniProt Q9NZQ7); assay: flow cytometry; ratio of MFI on CHO/huPD-L1 cells to MFI on Jurkat (CD28) cells
[42] = target: human CTLA-4 (huCTLA4), on stably transduced CHO cells (human) (UniProt P16410); assay: flow cytometry on CHO cells stably expressing huCTLA4, 33.3 nM Fc fusion, PE anti-human Fc
[43] = target: human PD-L1 (huPD-L1), on stably transduced CHO cells (human) (UniProt Q9NZQ7); assay: flow cytometry on CHO/huPD-L1 cells; MFI relative to WT CD80 (CD80 WT IgV-Fc = 1.0)
PD-L1 (human) [44] = target: PD-L1 (human) (UniProt Q9NZQ7); assay: flow cytometry, HEK293 cells transfected with human PD-L1

IL2-luciferase reporter, fold increase in RLU over WT CD80-IgV-Fc at 5.0 nM (PD-L1 (human) [1]): 2.77 fold | IL2-luciferase reporter, fold increase in RLU over WT CD80-IgV-Fc at 5.0 nM (CD28 (human) [2]): 2.77 fold
Substance: CD80 E35D/D46V/M47L/V68M/L85Q/E88D IgV-Fc, delta linker (Fc fusion)

IL2-luciferase reporter, fold increase in RLU over WT CD80-IgV-Fc at 5.0 nM (PD-L1 (human) [1]): 2.63 fold | IL2-luciferase reporter, fold increase in RLU over WT CD80-IgV-Fc at 5.0 nM (CD28 (human) [2]): 2.63 fold
Substance: CD80 E35D/M47V/N48K/V68M/K89N IgV-Fc, delta linker (Fc fusion)

MFI (PD-L1 (human) [3]): 110000 | MFI (human CTLA-4 (human) [4]): 2200
Substance: CD80 R29D/Y31L/Q33H/K36G/M38I/T41A/M43R/M47T/L85R/K89N/A91T/F92P/K93V/R94L/I118V/T120S/I127T/T130A/K169E/H188D ECD-Fc (Fc fusion)

MFI at 66.6 nM (CD28 (human) [5]): 2590 | MFI at 22.2 nM (PD-L1 (human) [6]): 4740 | MFI at 66.6 nM (human CTLA-4 (human) [7]): 5960
Substance: Fc only

Relative Luminescence (RLU), Jurkat/IL2 reporter assay, at 100000 pM (CD28 (human) [8]): 965 RLU | MFI at 66.7 nM (CD28 (human) [9]): 73.2 | MFI at 66.7 nM (PD-L1 (human) [10]): 96.4 | MFI at 66.7 nM (human CTLA-4 (human) [11]): 69.4
Substance: Human IgG1 Isotype Control (antibody)

MFI at 33.3 nM (PD-L1 (human) [12]): 58 MFI | MFI at 33.3 nM (CD28 (human) [13]): 46 MFI | MFI at 66.6 nM (CD28 (human) [14]): 24800 | MFI at 33.3 nM (CD28 (human) [9]): 31 MFI | MFI at 33.3 nM (CD28 (human) [9]; record 2): 30 MFI | MFI at 33.3 nM (PD-L1 (human) [15]): 52 MFI
Substance: WT CD80 ECD-Fc (Fc fusion)

MFI at 66.6 nM (human CTLA-4 (human) [16]): 20700 MFI | MFI at 22.2 nM (PD-L1 (human) [17]): 1770 MFI | MFI at 66.6 nM (CD28 (human) [18]): 1620 MFI | Jurkat/IL2 reporter RLU at 50 nM, K562/OKT3/PD-L1 aAPC (PD-L1 (human) [19]): 206 RLU | Jurkat/IL2 reporter RLU at 50 nM, K562/OKT3/PD-L1 aAPC (CD28 (human) [20]): 206 RLU | Jurkat/IL2 reporter RLU at 50 nM, K562/OKT3/PD-L1 aAPC (PD-L1 (human) [21]): 566 RLU | Jurkat/IL2 reporter RLU at 50 nM, K562/OKT3/PD-L1 aAPC (CD28 (human) [22]): 566 RLU | Jurkat/IL2 reporter RLU at 50 nM, CHO/OKT3/PD-L1 aAPC (PD-L1 (human) [23]): 483 RLU | Jurkat/IL2 reporter RLU at 50 nM, CHO/OKT3/PD-L1 aAPC (CD28 (human) [24]): 483 RLU | Jurkat/IL2 reporter RLU at 50 nM, CHO/OKT3 aAPC without PD-L1 (CD28 (human) [24]): 479 RLU | IL-2 release, primary T cells + K562/OKT3/PD-L1, 100 nM (PD-L1 (human) [25]): 52 | IL-2 release, primary T cells + K562/OKT3/PD-L1, 100 nM (CD28 (human) [26]): 52
Substance: WT CD80 IgV-Fc (inert) (Fc fusion)

Fold change to WT CD80 (PD-L1 (human) [27]): 148 fold | IL2-luciferase reporter, fold increase in RLU over WT CD80-IgV-Fc at 5.0 nM (PD-L1 (human) [28]): 5.8 fold | IL2-luciferase reporter, fold increase in RLU over WT CD80-IgV-Fc at 5.0 nM (CD28 (human) [29]): 5.8 fold | Fold change to WT CD80 (CD28 (human) [30]): 66 fold | MFI at 33.3 nM (CD28 (human) [9]): 6730 MFI | MFI at 33.3 nM (PD-L1 (human) [10]): 24400 MFI | Fold change to WT CD80 (human CTLA-4 (human) [31]): 12 fold | MFI at 33.3 nM (human CTLA-4 (human) [11]): 16700 MFI
Substance: variant CD80 IgV-Fc (inert) H18Y/A26Q/E35D/M47T/V68M/A71G/D90G (Fc fusion)

Fold change to WT CD80 (PD-L1 (human) [27]): 316 fold | IL2-luciferase reporter, fold increase in RLU over WT CD80-IgV-Fc at 5.0 nM (PD-L1 (human) [28]): 4.8 fold | IL2-luciferase reporter, fold increase in RLU over WT CD80-IgV-Fc at 5.0 nM (CD28 (human) [29]): 4.8 fold | Fold change to WT CD80 (CD28 (human) [30]): 66.6 fold | MFI at 33.3 nM (CD28 (human) [9]): 6790 MFI | MFI at 33.3 nM (PD-L1 (human) [10]): 52200 MFI | Fold change to WT CD80 (human CTLA-4 (human) [31]): 12.4 fold | MFI at 33.3 nM (human CTLA-4 (human) [11]): 17200 MFI
Substance: variant CD80 IgV-Fc (inert) H18Y/E35D/M47V/V68M/A71G/D90G (Fc fusion)

Fold change to WT CD80 (CD28 (human) [32]): 0.07 fold | MFI at 33.3 nM (human CTLA-4 (human) [33]): 226000 MFI | MFI at 33.3 nM (PD-L1 (human) [34]): 11900 MFI | Fold change to WT CD80 (human CTLA-4 (human) [35]): 1.44 fold | MFI at 33.3 nM (CD28 (human) [36]): 1290 MFI
Substance: variant CD80 IgV-Fc E35D/M42V/M47V/E52D/L85Q (Fc fusion)

MFI at 33.3 nM [37]: 72.4 MFI | MFI at 33.3 nM [38]: 2190 MFI | Fold change to WT CD80 [39]: 1.1 fold | Fold change to WT CD80 [40]: 15.8 fold | Ratio of PDL1:CD28 [41]: 30 | MFI at 33.3 nM [42]: 30300 MFI | Fold change to WT CD80 [43]: 31.2 fold
Substance: variant CD80 IgV-Fc E35D/T41S/N48T (Fc fusion)

MFI at 22.2 nM (PD-L1 (human) [44]): 6310
Substance: variant CD80 IgV-Fc S44P/A71D (Fc fusion)
